From patent US20220251214A1 (JN BIOSCIENCES, published 2022)

Columns and labels:
[1] = target: CD40 on the surface of Ramos cells (human, UniProt P25942 21-277); assay: cell-based or functional assay
[2] = target: CD33 on the surface of HL-60 cells (human, UniProt P20138 18-364); assay: cell-based or functional assay
[3] = target: recombinant human CD33 on the surface of NS0/CD33 cells (CD33-FLAG-GPI) (human); assay: cell-based or functional assay
[4] = target: T1, human OX40 on the cell surface (JD/OX40 cells; OX40-expressing T cells) (human, UniProt P43489 29-277); assay: cell-based or functional assay
T1 sequence: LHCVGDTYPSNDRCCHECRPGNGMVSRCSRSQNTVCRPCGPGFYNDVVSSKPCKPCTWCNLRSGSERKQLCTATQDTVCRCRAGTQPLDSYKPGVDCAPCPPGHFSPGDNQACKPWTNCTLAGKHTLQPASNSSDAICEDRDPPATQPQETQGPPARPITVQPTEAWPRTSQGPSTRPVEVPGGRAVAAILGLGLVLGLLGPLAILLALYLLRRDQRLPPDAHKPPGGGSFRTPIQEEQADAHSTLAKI

[5] = target: T2, recombinant human PD-L1 on the surface of NS0/PD-L1 cells (PD-L1-FLAG-GPI) (human, UniProt Q9NZQ7 19-238); assay: flow cytometry; blocking of the binding of FITC-labeled hPD-1-Fc to NS0/PD-L1 cells
T2 sequence (Q9NZQ7 other isoform, or with tags, fused parts or gaps limits assumed): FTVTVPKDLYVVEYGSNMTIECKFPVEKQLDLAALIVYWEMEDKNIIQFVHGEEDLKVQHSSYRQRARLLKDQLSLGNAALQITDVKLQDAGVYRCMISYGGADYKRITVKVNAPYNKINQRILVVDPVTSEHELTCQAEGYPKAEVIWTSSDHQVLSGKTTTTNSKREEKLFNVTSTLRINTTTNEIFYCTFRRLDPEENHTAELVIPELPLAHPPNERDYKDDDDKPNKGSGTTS
Description: After washing with and suspending in FACS Buffer, cells were subjected to flow cytometry analysis.

[6] = target: human PD-L1 on PD-L1-expressing cells of human PBMC cultures (human, UniProt Q9NZQ7 19-290); assay: cell-based or functional assay
Sequence of human PD-L1 on PD-L1-expressing cells of human PBMC cultures (Q9NZQ7 19-290 limits assumed): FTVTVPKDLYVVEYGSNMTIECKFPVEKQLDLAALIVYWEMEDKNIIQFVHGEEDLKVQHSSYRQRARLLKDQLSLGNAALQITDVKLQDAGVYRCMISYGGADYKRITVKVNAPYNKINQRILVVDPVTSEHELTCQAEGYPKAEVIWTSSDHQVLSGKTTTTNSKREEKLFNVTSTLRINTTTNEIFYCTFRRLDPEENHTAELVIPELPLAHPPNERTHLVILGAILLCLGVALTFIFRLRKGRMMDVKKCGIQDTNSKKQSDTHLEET

[7] = target: T1, human OX40 on the cell surface (JD/OX40 …); assay: flow cytometry on JD/OX40 cells
[8] = target: T3, human PD-L1 (human, UniProt Q9NZQ7 19-238, limits assumed); assay: ELISA
T3 construct: also called B7H1; CD274
T3 sequence (Q9NZQ7 19-238 limits assumed): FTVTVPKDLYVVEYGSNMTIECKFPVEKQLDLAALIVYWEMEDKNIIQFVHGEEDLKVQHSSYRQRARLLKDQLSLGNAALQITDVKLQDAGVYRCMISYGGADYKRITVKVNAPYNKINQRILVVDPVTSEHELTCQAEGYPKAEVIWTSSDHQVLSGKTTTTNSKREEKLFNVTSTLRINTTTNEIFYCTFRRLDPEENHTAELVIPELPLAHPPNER

[9] = target: T4, human GITR (human, UniProt Q9Y5U5 26-161, limits assumed); assay: ELISA
T4 construct: also called TNFRSF18; CD357
T4 sequence: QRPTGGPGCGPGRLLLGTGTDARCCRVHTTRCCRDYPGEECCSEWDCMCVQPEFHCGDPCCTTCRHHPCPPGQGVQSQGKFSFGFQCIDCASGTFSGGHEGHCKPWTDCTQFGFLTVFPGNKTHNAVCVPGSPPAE

[10] = target: T2, recombinant human PD-L1 on the surface …; assay: cell-based or functional assay
[11] = target: T5, human GITR on the cell surface (JD/GITR cells; GITR-expressing T cells) (human, UniProt Q9Y5U5 26-241); assay: cell-based or functional assay
T5 sequence: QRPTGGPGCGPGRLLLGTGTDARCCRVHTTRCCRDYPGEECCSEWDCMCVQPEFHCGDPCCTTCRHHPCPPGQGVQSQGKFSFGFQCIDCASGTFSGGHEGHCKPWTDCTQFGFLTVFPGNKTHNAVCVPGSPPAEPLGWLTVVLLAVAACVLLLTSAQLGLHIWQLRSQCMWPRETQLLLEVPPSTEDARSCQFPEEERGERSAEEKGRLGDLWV

Sequence of CD40 on the surface of Ramos cells (P25942 21-277 limits assumed): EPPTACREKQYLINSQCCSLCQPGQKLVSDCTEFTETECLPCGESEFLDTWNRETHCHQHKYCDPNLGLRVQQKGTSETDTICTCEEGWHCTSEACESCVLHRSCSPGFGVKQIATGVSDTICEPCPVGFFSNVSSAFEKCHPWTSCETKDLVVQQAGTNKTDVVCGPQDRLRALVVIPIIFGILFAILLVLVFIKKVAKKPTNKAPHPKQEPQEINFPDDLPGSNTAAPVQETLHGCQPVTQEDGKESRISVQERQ
Sequence of CD33 on the surface of HL-60 cells (P20138 18-364 limits assumed): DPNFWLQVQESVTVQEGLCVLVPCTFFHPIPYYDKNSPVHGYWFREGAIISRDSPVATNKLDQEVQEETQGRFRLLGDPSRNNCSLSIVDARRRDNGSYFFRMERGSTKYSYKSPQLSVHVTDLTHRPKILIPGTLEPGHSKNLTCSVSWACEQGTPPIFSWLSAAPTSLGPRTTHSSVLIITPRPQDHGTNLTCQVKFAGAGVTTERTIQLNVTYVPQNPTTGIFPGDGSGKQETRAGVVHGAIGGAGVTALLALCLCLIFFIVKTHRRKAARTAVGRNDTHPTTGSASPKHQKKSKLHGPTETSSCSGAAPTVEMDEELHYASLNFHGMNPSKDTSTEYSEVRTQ
Sequence of recombinant human CD33 on the surface of NS0/CD33 cells (CD33-FLAG-GPI) (human) (chain, as listed by the source limits assumed): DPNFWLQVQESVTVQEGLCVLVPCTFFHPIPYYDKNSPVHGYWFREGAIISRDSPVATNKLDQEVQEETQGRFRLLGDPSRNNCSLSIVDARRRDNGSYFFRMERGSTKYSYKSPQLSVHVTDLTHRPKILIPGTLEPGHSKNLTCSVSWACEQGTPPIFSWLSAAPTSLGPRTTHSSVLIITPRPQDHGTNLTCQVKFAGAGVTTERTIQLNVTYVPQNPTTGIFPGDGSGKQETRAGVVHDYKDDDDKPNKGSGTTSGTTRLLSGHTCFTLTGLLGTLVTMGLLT

B1: BS828 (bispecific antibody, human IgG1, kappa, L234A L235A)
heavy: not shown
light: DIQMTQSPSSLSASVGDRVTITCRASESVDNYGISFMNWFQQKPGGAPKLLIYAASNQGSGVPSRFSGSGSGTDFTLTISSLQPDDFATYYCQQSKEVPWTFGQGTKVEIKRTVAAPSVFIFPPSDEQLKSGTASVVCLLNNFYPREAKVQWKVDNALQSGNSQESVTEQDSKDSTYSLSSTLTLSKADYEKHKVYACEVTHQGLSSPVTKSFNRGEC
percentage of CD95-positive population among Ramos cells, 0.5 µg/ml antibody, in the presence of HL-60 cells [1]: 58.4% | percentage of CD95-positive population among Ramos cells, 0.5 µg/ml antibody, in the presence of HL-60 cells [2]: 58.4%

B2: BS824 (bispecific antibody, human IgG1, kappa, L234A L235A)
heavy: not shown
light: DIQMTQSPSSLSASVGDRVTITCRASESVDNYGISFMNWFQQKPGGAPKLLIYAASNQGSGVPSRFSGSGSGTDFTLTISSLQPDDFATYYCQQSKEVPWTFGQGTKVEIKRTVAAPSVFIFPPSDEQLKSGTASVVCLLNNFYPREAKVQWKVDNALQSGNSQESVTEQDSKDSTYSLSSTLTLSKADYEKHKVYACEVTHQGLSSPVTKSFNRGEC
average relative luciferase unit (RLU) in JD/OX40 cells, 1 µg/ml antibody, with NS0/CD33 cells [3]: 21700 RLU | average relative luciferase unit (RLU) in JD/OX40 cells, 1 µg/ml antibody, with NS0/CD33 cells [4]: 21700 RLU

B3: HuPRO2-IgG1.AA (antibody, V domains shown)
VH: VQLVQSGAEVKKPGSSVKVSCKASGYTFTSYGINWVRQAPGQGLEWIGYIYPGSGGPVYNQKFKGRVTLTADKSTSTAYMELSSLRSEDTAVYYCARENYRYWYFDVWGQGTTVTVSS
VL: DIQLTQSPSFLSASVGDRVTITCSASSSVNYMHWFQQKPGKAPKLWIYSTSNLASGVPSRFSGSGSGTEFTLTISSLQPEDFATYYCQQRSSYPLTFGGGTKVEIKR
notes: Humanized IgG1/kappa with L234A/L235A; also called humanized PRO2; Anti-PD-L1 #2
IC50 [5]: 0.055 µg/mL

B4: BS841 (bispecific antibody, human IgG1, kappa, L234A L235A)
heavy: not shown
light: DIQLTQSPSFLSASVGDRVTITCSASSSVNYMHWFQQKPGKAPKLWIYSTSNLASGVPSRFSGSGSGTEFTLTISSLQPEDFATYYCQQRSSYPLTFGGGTKVEIKRTVAAPSVFIFPPSDEQLKSGTASVVCLLNNFYPREAKVQWKVDNALQSGNSQESVTEQDSKDSTYSLSSTLTLSKADYEKHKVYACEVTHQGLSSPVTKSFNRGEC
average IL-2 concentration in human PBMC-derived T cells (PHA-L-treated, OKT3-coated plate), 1 µg/ml antibody [6]: 1700 | average IL-2 concentration, SEB-treated human PBMC, 1 µg/ml antibody [6]: 16.5 ng/mL | average IL-2 concentration in human PBMC-derived T cells (PHA-L-treated, OKT3-coated plate), 1 µg/ml antibody [4]: 1700 | average IL-2 concentration, SEB-treated human PBMC, 1 µg/ml antibody [4]: 16.5 ng/mL

B5: HuPRO5-IgG1.AA (antibody, V domains shown)
VH: QVQLQESGPGLVKPSQTLSLTCTVSGDSISSGYWNWIRQPPGKGLEYMGYISYTGSTYSNPSLKSRVTISRDTSKNQFSLKLSSVTAADTAVYYCARSQNWERAWFAYWGQGTLVTVSS
VL: DIQMTQSPSSLSASVGDRVTITCSASSSVSYMHWYQQKPGKAPKLWIYDTSKLASGVPSRFSGSGSGTDFTLTISSLQPEDFATYYCFQGSGYPFTFGGGTKVEIKR
notes: also called humanized PRO5; Anti-PD-L1 #5
IC50 [5]: 0.087 µg/mL

B6: HuM195-IgG1 (antibody, V domains shown)
VH: QVQLVQSGAEVKKPGSSVKVSCKASGYTFTDYNMHWVRQAPGQGLEWIGYIYPYNGGTGYNQKFKSKATITADESTNTAYMELSSLRSEDTAVYYCARGRPAMDYWGQGTLVTVSS
VL: DIQMTQSPSSLSASVGDRVTITCRASESVDNYGISFMNWFQQKPGGAPKLLIYAASNQGSGVPSRFSGSGSGTDFTLTISSLQPDDFATYYCQQSKEVPWTFGQGTKVEIKR
notes: Humanized IgG1/kappa, wild-type CH2; also called humanized anti-CD33 IgG1/kappa antibody; anti-CD33
binding result [7]: no binding

B7: HuPRO1-IgG1.AA (antibody, V domains shown)
VH: QVQLVQSGAEVKKPGSSVKVSCKASGFTFSSSYISWVRQAPGQGLEWIAWIYAGTGGTSYNQKFTGRATITVDESTSTAYMELSSLRSEDTAVYYCARHEGVYWYFDVWGQGTTVTVSS
VL: EIVLTQSPATLSLSPGERATLSCSASSSVSYMHWYQQKPGQAPRPWIYDTSNLASGFPARFSGSGSGTDFTLTISSLEPEDFAVYYCHQRSSYPWTFGGGTKVEIKR
notes: Humanized IgG1/kappa with L234A/L235A; Heavy chain built from VH and the constant exons of pHuM195-IgG1; also called humanized PRO1; anti-PD-L1
average IL-2 concentration in PBMC-derived T cells of donor 4143, 1 µg/ml antibody [6]: 1450 pg/mL | IC50 [5]: 0.106 µg/mL

B8: BS853 (bispecific antibody, human IgG1, kappa, L234A L235A)
heavy: not shown
light: EIVLTQSPATLSLSPGERATLSCSASSSVSYMHWYQQKPGQAPRPWIYDTSNLASGFPARFSGSGSGTDFTLTISSLEPEDFAVYYCHQRSSYPWTFGGGTKVEIKRTVAAPSVFIFPPSDEQLKSGTASVVCLLNNFYPREAKVQWKVDNALQSGNSQESVTEQDSKDSTYSLSSTLTLSKADYEKHKVYACEVTHQGLSSPVTKSFNRGEC
notes: Transiently expressed in HEK293 cells; Cysteines at position 44 of VH and 100 of VL of the anti-GITR scFv; also called modified bispecific antibody encoded in pBS853; BS809 with disulfide-linked anti-GITR scFv
binding result [8]: binds | binding result [9]: binds

B9: BS813 (bispecific antibody, human IgG1, kappa, L234A L235A)
heavy: not shown
light: EIVLTQSPATLSLSPGERATLSCSASSSVSYMHWYQQKPGQAPRPWIYDTSNLASGFPARFSGSGSGTDFTLTISSLEPEDFAVYYCHQRSSYPWTFGGGTKVEIKRTVAAPSVFIFPPSDEQLKSGTASVVCLLNNFYPREAKVQWKVDNALQSGNSQESVTEQDSKDSTYSLSSTLTLSKADYEKHKVYACEVTHQGLSSPVTKSFNRGEC
average relative luciferase unit (RLU) in JD/OX40 cells, 1 µg/ml antibody, with NS0/PD-L1 cells [10]: 23700 RLU | average IL-2 concentration in human PBMC-derived T cells (PHA-L-treated, OKT3-coated plate), 1 µg/ml antibody [6]: 2200 | average IL-2 concentration, SEB-treated human PBMC, 1 µg/ml antibody [6]: 17.7 ng/mL | average IL-2 concentration in human PBMC-derived T cells (PHA-L-treated, OKT3-coated plate), 1 µg/ml antibody [4]: 2200 | average IL-2 concentration, SEB-treated human PBMC, 1 µg/ml antibody [4]: 17.7 ng/mL | average relative luciferase unit (RLU) in JD/OX40 cells, 1 µg/ml antibody, with NS0/PD-L1 cells [4]: 23700 RLU

B10: BS809 (bispecific antibody, human IgG1, kappa, L234A L235A)
heavy: not shown
light: EIVLTQSPATLSLSPGERATLSCSASSSVSYMHWYQQKPGQAPRPWIYDTSNLASGFPARFSGSGSGTDFTLTISSLEPEDFAVYYCHQRSSYPWTFGGGTKVEIKRTVAAPSVFIFPPSDEQLKSGTASVVCLLNNFYPREAKVQWKVDNALQSGNSQESVTEQDSKDSTYSLSSTLTLSKADYEKHKVYACEVTHQGLSSPVTKSFNRGEC
average relative luciferase unit (RLU) in the culture supernatants of JD/GITR cells, 1 µg/ml antibody, with NS0/PD-L1 cells [10]: 1.04e+06 RLU | average IL-2 concentration in PBMC-derived T cells of donor 4143, 1 µg/ml antibody [6]: 4200 pg/mL | average IL-2 concentration in PBMC-derived T cells of donor 4143, 1 µg/ml antibody [11]: 4200 pg/mL | average relative luciferase unit (RLU) in the culture supernatants of JD/GITR cells, 1 µg/ml antibody, with NS0/PD-L1 cells [11]: 1.04e+06 RLU

B11: HuOHX14DS-IgG1.AA (antibody, V domains shown)
VH: QVQLVQSGAEVKKPGSSVKVSCKASGYTFTSYIMHWVRQAPGQGLEWIGYINPYNSGTKYNEKFKGRVTITSDKSTSTAYMELSSLRSEDTAVYYCAHYYGSTFTMDYWGQGTTVTVSS
VL: DIQMTQSPSSLSASVGDRVTITCRASQDIRTYLNWYQQKPGKVPKLLIYYTSRLHSGVPSRFSGSGSGTDYTLTISSLQPEDVATYYCQQGNTLPWTFGGGTKVEIKR
average relative luciferase unit (RLU) in JD/OX40 cells, 1 µg/ml antibody, with NS0/CD33 cells [4]: 8700 RLU | average relative luciferase unit (RLU) in JD/OX40 cells, 1 µg/ml antibody, with NS0/PD-L1 cells [4]: 5920 RLU

B12: HuACS2-IgG1.AA (antibody, V domains shown)
VH: QVQLVQSGAEVKKPGSSVKVSCKASGYTFTSYWLHWVRQAPGQGLEWIGRIDPNSGDTKYNEKFKSRATITVDKSTSTAYMELSSLRSEDTAVYYCARYYYGRSYFDYWGQGTTVTVSS
VL: IVLTQSPATLSLSPGERATLSCSASSSVSYMHWYQQKPGQAPRRWIYDTSKLASGVPARFSGSGSGTDYTLTISSLEPEDFAVYYCQQWSSNPLTFGGGTKVEIKR
percentage of CD95-positive population among Ramos cells, 0.5 µg/ml antibody, in the presence of HL-60 cells [1]: 0.7%
